This note sets out measurements from paper PMC9396414 (2022).

The assay deals with RbPLX7. Put plainly: SPR.

B1: biotinylated human Plexin-B1 (20–535)-Avi-6xHis (domain or fragment)
chain: LQPLPPTAFTPNGTYLQHLARDPTSGTLYLGATNFLFQLSPGLQLEATVSTGPVLDSRDCLPPVMPDECPQAQPTNNPNQLLLVSPGALVVCGSVHQGVCEQRRLGQLEQLLLRPERPGDTQYVAANDPAVSTVGLVAQGLAGEPLLFVGRGYTSRGVGGGIPPITTRALWPPDPQAAFSYEETAKLAVGRLSEYSHHFVSAFARGASAYFLFLRRDLQAQSRAFRAYVSRVCLRDQHYYSYVELPLACEGGRYGLIQAAAVATSREVAHGEVLFAAFSSAAPPTVGRPPSAAAGASGASALCAFPLDEVDRLANRTRDACYTREGRAEDGTEVAYIEYDVNSDCAQLPVDTLDAYPCGSDHTPSPMASRVPLEATPILEWPGIQLTAVAVTMEDGHTIAFLGDSQGQLHRVYLGPGSDGHPYSTQSIQQGSAVSRDLTFDGTFEHLYVMTQSTLLKVPVASCAQHLDCASCLAHRDPYCGWCVLLGRCSRRSECSRGQGPEQWLWSFQPELGCLQ
modifications: biotin on the Avi-tag (in vitro, BirA enzyme)
As for B1, the affinity, expressed as Kd, was 0.346 nM.
